The target of data set [1] is Proteorhodopsin (green variant). Nature of the data set: native MS; LILBID-MS of PR synthesized in the presence of DH7PC and GDN and purified with 0.1% DH7PC; no nanodiscs.
The target is the same in data set [2]. Nature of the data set: native MS; LILBID-MS of the membrane protein in MSP1E3D1 (DMPG) nanodiscs; 50 mM ammonium acetate pH 6.8; anionic mode; laser pulse energy between 9.5 and 23 mJ; unlabeled and (KcsA) 15N, 2H labeled samples.
Data set [3] concerns the molecule itself. Nature of the data set: native MS; LILBID-MS of hHv1-VSD in nanodiscs of MSP1D1ΔH5 (19.49 kDa, His6-tag cleaved); unlabeled and 15N, 2H labeled samples.
Data set [4] deals with the molecule itself. The experiment in a line: native MS; LILBID-MS of the membrane protein in MSP1E3D1 (DMPG) nanodiscs; 50 mM ammonium acetate pH 6.8; anionic mode; laser pulse energy between 9.5 and 23 mJ; unlabeled and (KcsA) 15N, 2H labeled samples.

What is called stoichiometry N is the number of molecules, sites or subunits per partner or assembly.

For the molecule “Proteorhodopsin (green variant) (natural protein)”, the values for the stoichiometry N in data set [1] and in data set [2] were 2 and < 6, respectively.

B1: Human proton channel - voltage sensing domain (domain or fragment, UniProt Q96D96 75-223, looked up)
chain: APAPGPAPRAPLDFRGMLRKLFSSHRFQVIIICLVVLDALLVLAELILDLKIIQPDKNNYAAMVFHYMSITILVFFMMEIIFKLFVFRLEFFHHKFEILDAVVVVVSFILDIVLLFQEHQFEALGLLILLRLWRVARIINGIIISVKTR
modifications: in some samples uniformly 15N, 2H isotope labeled
notes: voltage-sensing domain of the human proton channel Hv1, residues 75-223; lacks the intracellular domain; theoretical mass of the construct 20.80 kDa; Construct in pET15b described in Li et al., 2015; a C-terminal StrepII tag was added here by QuickChange mutagenesis; also called hHv1-VSD; hHv-1-VSD
With B1, the “stoichiometry N” value in data set [3] was determined as 2.

B2: Phospho-N-acetylmuramyl-pentapeptide-transferase E.coli (enzyme, E. coli, UniProt P0A6W3 1-360, looked up)
chain: MLVWLAEHLVKYYSGFNVFSYLTFRAIVSLLTALFISLWMGPRMIAHLQKLSFGQVVRNDGPESHFSKRGTPTMGGIMILTAIVISVLLWAYPSNPYVWCVLVVLVGYGVIGFVDDYRKVVRKDTKGLIARWKYFWMSVIALGVAFALYLAGKDTPATQLVVPFFKDVMPQLGLFYILLAYFVIVGTGNAVNLTDGLDGLAIMPTVFVAGGFALVAWATGNMNFASYLHIPYLRHAGELVIVCTAIVGAGLGFLWFNTYPAQVFMGDVGSLALGGALGIIAVLLRQEFLLVIMGGVFVVETLSVILQVGSFKLRGQRIFRMAPIHHHYELKGWPEPRVIVRFWIISLMLVLIGLATLKVR
notes: MraY translocase of E. coli; theoretical mass of the construct 42.22 kDa; Dimer in DMPG and in DMPC/DMPG nanodiscs, monomer in DMPC nanodiscs; also called Ec-MraY; E. coli MraY; source: cell-free (CECF, E. coli A19 lysate), co-translationally inserted into nanodiscs, purified (Streptactin)
For the molecule B2, the “stoichiometry N” value in data set [4] is 2.

B3: pH-gated potassium channel KcsA (natural protein)
chain: SALHWRAAGAATVLLVIVLLAGSYLAVLAERGAPGAQLITYPRALWWSVETATTVGYGDLYPVTLWGRLVAVVVMVAGITSFGLVTAALATWFVGREQERRGHFVRHSEKAAEEAYTRTTRALHERFDRLERMLDDNRR
modifications: in some samples uniformly 15N, 2H isotope labeled
notes: pH-gated potassium channel KcsA; theoretical mass of the construct 21.33 kDa (22.70 kDa labeled); The printed mass (21.33 kDa) is larger than the natural chain, so tags or extra residues beyond the StrepII tag may be present; source: cell-free (CECF, E. coli A19 lysate), co-translationally inserted into nanodiscs, purified (Streptactin)
For the molecule B3, in data set [4], the “stoichiometry N” value was 4.

B4: Multidrug transporter EmrE (natural protein)
chain: MNPYIYLGGAILAEVIGTTLMKFSEGFTRLWPSVGTIICYCASFWLLAQTLAYIPTGIAYAIWSGVGIVLISLLSWGFFGQRLDLPAIIGMMLICAGVLIINLLSRSTPH
notes: small multidrug transporter EmrE; theoretical mass of the construct 13.00 kDa; source: cell-free (CECF, E. coli A19 lysate), co-translationally inserted into nanodiscs, purified (Streptactin)
For B4, the “stoichiometry N” value in data set [4] was 2.

B5: Phospho-N-acetylmuramyl-pentapeptide-transferase B.subtilis (enzyme, B. subtilis, UniProt Q03521 1-324, looked up)
chain: MLEQVILFTILMGFLISVLLSPILIPFLRRLKFGQSIREEGPKSHQKKSGTPTMGGVMIILSIIVTTIVMTQKFSEISPEMVLLLFVTLGYGLLGFLDDYIKVVMKRNLGLTSKQKLIGQIIIAVVFYAVYHYYNFATDIRIPGTDLSFDLGWAYFILVLFMLVGGSNAVNLTDGLDGLLSGTAAIAFGAFAILAWNQSQYDVAIFSVAVVGAVLGFLVFNAHPAKVFMGDTGSLALGGAIVTIAILTKLEILLVIIGGVFVIETLSVILQVISFKTTGKRIFKMSPLHHHYELVGWSEWRVVVTFWAAGLLLAVLGIYIEVWL
notes: MraY translocase of B. subtilis; theoretical mass of the construct 37.88 kDa; also called Bs-MraY; B. subtilis MraY; source: cell-free (CECF, E. coli A19 lysate), co-translationally inserted into nanodiscs, purified (Streptactin)
Regarding B5, the “stoichiometry N” value in data set [4] turned out to be 2.

The values above are taken from paper PMC5291076, “Analyzing native membrane protein assembly in nanodiscs by combined non-covalent mass spectrometry and synthetic biology” (eLife, 2017).
